Source: US8846363B2, “Compositions of and methods of using sulfatases from Flavobacterium heparinum” (priority 2007, dated 2014)

Legend:
[1] = Coupled N-sulfamidase/α-glucosidase fluorimetric plate assay (reaction conditions, steady-state kinetics); format: biochemical
Excerpt: Indirect measurement of enzyme activity was also made using a fluorimetrically-based plate assay in which the prerequisite desulfation of the appropriate glucopyranoside 1→4 methlybelliferone substrate by either the 6-O-sulfatase or N-sulfamidase was coupled to the glucosidase-mediated hydrolysis of the stereo-specific 1→4 glycosidic linkage between the pyranose ring and the adjoining fluorophore. Release of the free fluorophore (4-MU) was monitored spectroscopically as described above for the arylsulfatase assay using 4-MU sulfate. The two sulfatase assays differed in the choice of substrate in accordance to their specificity as well as the glucosidase added during the second, […] step. For the 6-O-sulfatase, the hydrolysis of the substrate 4-MU-β-D-GlcNAc,6S at the 6-OH position was coupled to β-glucosidase purified from sweet almonds (MP Biomedicals, Solon, Ohio, Catalog No. 195197). Likewise, N-sulfamidase hydrolysis of 4-MU-α-D-GlcNS at the 2-amino position was coupled to α-glucosidase (MP Biomedicals, Catalog No. 153487). […] The presumption of the first (sulfatase) activity being the rate-limiting step was established experimentally. Reaction conditions were optimized to satisfy three related criteria: 1) linear readout of fluorescent signal which is directly proportional to sulfatase activity; 2) quantitative release of 4-MU by glucosidase activity under every biochemical condition examined and; 3) negligible fluorescent quenching of the free chromophore.
(§1) Coupled N-sulfamidase assay was generally described for the 6-O-sulfatase, but with the following modifications: 4-MU-GlcNS as substrate, 50 mM sodium acetate at pH 6.0 (instead of 5.5) and 1 μM enzyme. For the second enzyme step, 5 units of α-glucosidase were added. Enzyme incubation was carried out for 22 hours at 37° C. The obvious difference in enzyme efficacies between α-glucosidase versus β-glucosidase is reflected in the substantially longer incubation times required for the α-glucosidase to quantitatively hydrolyze the glycosidic α1→4 linkage between the fluorophore and the desulfated glucosamine. […]

[2] = substrate: Cc1cc(=O)oc2cc(O[C@H]3O[C@H](CO)[C@@H](O)[C@H](O)[C@H]3NS(=O)(=O)O)ccc12; experiment: Steady-state kinetics, coupled N-sulfamidase/α-glucosidase fluorimetric assay with 4-MU-GlcNS; format: biochemical, Flavobacterium heparinum (Pedobacter heparinus)
Excerpt: Recombinant protein expression in the E. coli strain BL21(DE3) and one-step affinity purification by nickel chelation chromatography were as described for 2-O-sulfatase (Myette et al., 2003 J Biol Chem 278, 12157-12166). The prediction of NH2-terminal signal sequences and putative cleavage sites for the two respective proteins was made by the Von Heijne computational method (Nielsen et al., 1997 Protein Eng 10, 1-6.). Engineering and expression of these truncated proteins (minus signal sequences) were as described above for the full-length genes with the exception of substituting the 5′ primers which were used in the original PCR amplification step. These internal primers included 5′ TCTAGACATATGTCTTGCCAGCAGCCTAAAC 3′ (for ORF B; SEQ ID NO: 15) and 5′ TCTAGACATATGTCCTGCACTTCGCCGGAA 3′ (for ORF C; SEQ ID NO: 16), with the Nde 1 site underlined. As such, the ORF B gene sequence begins at Met 18 (FIG. 1). Likewise, the ORF C gene sequence begins at Ser 21 (FIG. 2). Removal of the 6×His tag was achieved by site-specific protease cleavage using the thrombin cleavage capture kit (Novagen, San Diego, Calif.). Proteolysis conditions were generally as described for other recombinantly expressed flavobacterial heparin degrading enzymes. […]
Indirect measurement of enzyme activity was also made using a fluorimetrically-based plate assay in which the prerequisite desulfation of the appropriate glucopyranoside 1→4 methlybelliferone substrate by either the 6-O-sulfatase or N-sulfamidase was coupled to the glucosidase-mediated hydrolysis of the stereo-specific 1→4 glycosidic linkage between the pyranose ring and the adjoining fluorophore. Release of the free fluorophore (4-MU) was monitored spectroscopically as described above for the arylsulfatase assay using 4-MU sulfate. […] Reaction conditions were optimized to satisfy three related criteria: 1) linear readout of fluorescent signal which is directly proportional to sulfatase activity; 2) quantitative release of 4-MU by glucosidase activity under every biochemical condition examined and; 3) negligible fluorescent quenching of the free chromophore.
as §1, with “For the second enzyme step, 5 units of α-glucosidase were added. Enzyme incubation was carried out for 22 hours at 37° C.” left out

[3] = CE-LIF detection of sequentially degraded oligosaccharides; format: biochemical; conditions: after Δ4,5 glycuronidase treatment of ΔUHNSIHNSIHNS
Method: The APTS derivitization protocol was adapted from Chen et al. (Chen F. T. A., and Evangelista R. A. (1995) Analytical Biochemistry 230, 273-280). Briefly, 2 μl of 100 mM 9-aminopyrene-1,4,6-trisulfonate (APTS) in 25% acetic acid (v/v) were mixed with 10 μl of 1M sodium cyanoborohydride in tetrohydrofuran and 1 μmol of saccharide. The reaction mixture was incubated at 75° C. for 2 hr and was diluted 1:100 prior to CE analysis. CE-LIF was performed on a Beckman Coulter ProteomeLab PA 800 with 488 nm argon LIF module. Samples were loaded onto a N—CHO capillary (50 μm I.D.×65 cm total length) using 0.5 psi of pressure at the anode for 20 sec. Electrophoretic separations were performed using a 20 kV potential in a 100 mM sodium borate, pH 10.2 buffer for 15 min at 25° C. Fluorescence emission spectra were collected using a 520 nm narrow band filter.

[4] = other: Addition: 0.5 mM Ca^+2, pH 6.0, 37.0 °C
[5] = other: Addition: 5 mM Ca^+2, pH 6.0, 37.0 °C

B1: Flavobacterium heparinum N-sulfamidase (ORF C), recombinant, NH2-terminal truncation lacking signal sequence, SEQ ID NO: 4 (Pedobacter heparinus DSM 2366) (protein)
chain: SCTSPEKKTDRPNILMIMSDNQSWNHVGSYGDQTVRTPNMDRIAKEGVRFTNAFCSSPSCTPARAGMLTGQDIWRLEDGGNLWGVLPVKYKVYPDLLEEAGYAIGFQGKGWGPGSFEANKRPRNPAGNEFKSFGAFLKDKKEGPWCYWISSHEPHRPYVEGSGEKAGIDPNKVKVPAYLPDHISIRKDIADYYAAVETFDRELGEALDQLKASGELDNTVIVVCSDNGWQMPRGLANLYDFGTHVPLIISWPGKFKQDVVADNLVTLNDLAPTFLQLGKVPVPADMTGKSLLPIVEAGKKDEKPRDYVVLGRERHAFVRRHGLGYPGRAIRTKDYLYIKNYEPNRWPAGDPPFYGDIDPYMFNWPGETKYYLIEHKDDPKVKSFFELGMGKRPAEELFDINKDPDELHNLAALPEYQKIKQELVAKLRNYLVATKDPRETNGNIQIWDTAAYFSEIDKTPKPSKEMQKRFKLDSSYNYLK
notes: E. coli BL21(DE3), N-terminal 6xHis removed by thrombin
- calcium requirement for activity [1]: required calcium for activity
- effect of Mg^+2 or Mn^+2 on activity ([1]; 1 mM or 5 mM divalent metal): only negligible effects
- activity remaining relative to the zero NaCl control ([1]; 1 M NaCl): less than 20%
- Km [2, 4]: 45 µM
- kcat [2, 4]: 0.085 s⁻¹
- Km [2, 5]: 178 µM
- kcat [2, 5]: 0.365 s⁻¹
- desulfation of oligosaccharide at the non-reducing end [3]: does desulfate some oligosaccharides in an exolytic fashion
